# Measurements published in publication PMC12102759 (2025).
# B1: PAIP1 peptide 124-139 (Polyadenylate-binding protein-interacting protein 1), 16-mer library wild type / PABPC1 PABC (PABPC1 PABC domain, residues 544-623) (parent complex)
# chain 1: LMSKLSVNAPEFYPSG
# chain 2: PLTASMLASAPPQEQKQMLGERLFPLIQAMHPTLAGKITGMLLEIDNSELLHMLESPESLRSKVDEAVAVLQAHQAKEAA
# Variants of: B1
# Assay: proteomic peptide phage display deep mutational scan (ProP-PD DMS): M13 P8 16-mer library selected against immobilised GST-tagged bait for four days (rounds), NGS of the eluted pools per day and pseudo-replica; bait immobilised on MaxiSorp plates (10 µg), library pre-cleared on GST, 2 h binding at 4 °C, five washes; one round per day, days 1-4; value from days 2 and 3
row,Variant,screen value
1,chain 1 LMSKLSVNAPEFYPEG [chain 1 S15E],"0.0098 average fractional NGS count over selection days 2 and 3 (reads of this peptide / all reads for the bait, averaged over …"
2,chain 1 LMSKLSVNAPEFYPVG [chain 1 S15V],"0.00767 average fractional NGS count over selection days 2 and 3 (reads of this peptide / all reads for the bait, averaged over …"
3,chain 1 LMSKLSVNAPEFYPAG [chain 1 S15A],"0.00144 average fractional NGS count over selection days 2 and 3 (reads of this peptide / all reads for the bait, averaged over …"
4,chain 1 LMSKLSVNAPEFYPYG [chain 1 S15Y],"0.00169 average fractional NGS count over selection days 2 and 3 (reads of this peptide / all reads for the bait, averaged over …"
5,chain 1 LMSKLSVNAPEFYPHG [chain 1 S15H],"0.0055 average fractional NGS count over selection days 2 and 3 (reads of this peptide / all reads for the bait, averaged over …"
6,chain 1 LMSKLSVNAPEFYPIG [chain 1 S15I],"0.000837 average fractional NGS count over selection days 2 and 3 (reads of this peptide / all reads for the bait, averaged over …"
7,chain 1 LMSKLSVNAPEFYPPG [chain 1 S15P],"0.000374 average fractional NGS count over selection days 2 and 3 (reads of this peptide / all reads for the bait, averaged over …"
8,chain 1 LMSKLSVNAPEFYPGG [chain 1 S15G],"0.00184 average fractional NGS count over selection days 2 and 3 (reads of this peptide / all reads for the bait, averaged over …"
9,chain 1 LMSKLSVNAPEFYPKG [chain 1 S15K],"0.000858 average fractional NGS count over selection days 2 and 3 (reads of this peptide / all reads for the bait, averaged over …"
10,chain 1 LMSKLSVNAPEFYPTG [chain 1 S15T],"0.000722 average fractional NGS count over selection days 2 and 3 (reads of this peptide / all reads for the bait, averaged over …"
11,chain 1 LMSKLSVNAPEFYPRG [chain 1 S15R],"0.00163 average fractional NGS count over selection days 2 and 3 (reads of this peptide / all reads for the bait, averaged over …"
12,chain 1 LMSKLSVNAPEFYPDG [chain 1 S15D],"0.00256 average fractional NGS count over selection days 2 and 3 (reads of this peptide / all reads for the bait, averaged over …"
13,chain 1 LMSKLSVNAPEFYPMG [chain 1 S15M],"0.00153 average fractional NGS count over selection days 2 and 3 (reads of this peptide / all reads for the bait, averaged over …"
14,chain 1 LMSKLSVNAPEFYPWG [chain 1 S15W],"0.000557 average fractional NGS count over selection days 2 and 3 (reads of this peptide / all reads for the bait, averaged over …"
15,chain 1 LESKLSVNAPEFYPSG [chain 1 M2E],"0.00221 average fractional NGS count over selection days 2 and 3 (reads of this peptide / all reads for the bait, averaged over …"
16,chain 1 LLSKLSVNAPEFYPSG [chain 1 M2L],"0.000374 average fractional NGS count over selection days 2 and 3 (reads of this peptide / all reads for the bait, averaged over …"
17,chain 1 LASKLSVNAPEFYPSG [chain 1 M2A],"0.000739 average fractional NGS count over selection days 2 and 3 (reads of this peptide / all reads for the bait, averaged over …"
18,chain 1 LNSKLSVNAPEFYPSG [chain 1 M2N],"0.00156 average fractional NGS count over selection days 2 and 3 (reads of this peptide / all reads for the bait, averaged over …"
19,chain 1 LPSKLSVNAPEFYPSG [chain 1 M2P],"0.000581 average fractional NGS count over selection days 2 and 3 (reads of this peptide / all reads for the bait, averaged over …"

row,Variant,screen value
1,chain 1 LGSKLSVNAPEFYPSG [chain 1 M2G],"0.00279 average fractional NGS count over selection days 2 and 3 (reads of this peptide / all reads for the bait, averaged over …"
2,chain 1 LVSKLSVNAPEFYPSG [chain 1 M2V],"0.000531 average fractional NGS count over selection days 2 and 3 (reads of this peptide / all reads for the bait, averaged over …"
3,chain 1 LWSKLSVNAPEFYPSG [chain 1 M2W],"0.000144 average fractional NGS count over selection days 2 and 3 (reads of this peptide / all reads for the bait, averaged over …"
4,chain 1 LMSKLSVNAQEFYPSG [chain 1 P10Q],"0.000419 average fractional NGS count over selection days 2 and 3 (reads of this peptide / all reads for the bait, averaged over …"
5,chain 1 LMSKLSVNAREFYPSG [chain 1 P10R],"0.000887 average fractional NGS count over selection days 2 and 3 (reads of this peptide / all reads for the bait, averaged over …"
6,chain 1 LMSKLSVNAAEFYPSG [chain 1 P10A],"0.0041 average fractional NGS count over selection days 2 and 3 (reads of this peptide / all reads for the bait, averaged over …"
7,chain 1 LMSKLSVNAIEFYPSG [chain 1 P10I],"0.000358 average fractional NGS count over selection days 2 and 3 (reads of this peptide / all reads for the bait, averaged over …"
8,chain 1 LMSKLSVNAHEFYPSG [chain 1 P10H],"0.000334 average fractional NGS count over selection days 2 and 3 (reads of this peptide / all reads for the bait, averaged over …"
9,chain 1 LMSKLSVNASEFYPSG [chain 1 P10S],"0.00454 average fractional NGS count over selection days 2 and 3 (reads of this peptide / all reads for the bait, averaged over …"
10,chain 1 LMSKLSVNADEFYPSG [chain 1 P10D],"0.00221 average fractional NGS count over selection days 2 and 3 (reads of this peptide / all reads for the bait, averaged over …"
11,chain 1 LMSKLSVNANEFYPSG [chain 1 P10N],"0.00136 average fractional NGS count over selection days 2 and 3 (reads of this peptide / all reads for the bait, averaged over …"
12,chain 1 LMSKLSVNALEFYPSG [chain 1 P10L],"0.00239 average fractional NGS count over selection days 2 and 3 (reads of this peptide / all reads for the bait, averaged over …"
13,chain 1 LMSKLSVNAMEFYPSG [chain 1 P10M],"0.000583 average fractional NGS count over selection days 2 and 3 (reads of this peptide / all reads for the bait, averaged over …"
14,chain 1 LMSKLSVNAEEFYPSG [chain 1 P10E],"0.00302 average fractional NGS count over selection days 2 and 3 (reads of this peptide / all reads for the bait, averaged over …"
15,chain 1 LMSKLSVNAKEFYPSG [chain 1 P10K],"0.000696 average fractional NGS count over selection days 2 and 3 (reads of this peptide / all reads for the bait, averaged over …"
16,chain 1 LMSKLSVNAPPFYPSG [chain 1 E11P],"0.000423 average fractional NGS count over selection days 2 and 3 (reads of this peptide / all reads for the bait, averaged over …"
17,chain 1 LMSKLSVNAPVFYPSG [chain 1 E11V],"0.00325 average fractional NGS count over selection days 2 and 3 (reads of this peptide / all reads for the bait, averaged over …"
18,chain 1 LMSKLSVNAPYFYPSG [chain 1 E11Y],"0.000125 average fractional NGS count over selection days 2 and 3 (reads of this peptide / all reads for the bait, averaged over …"
19,chain 1 LMSKLSVNAPTFYPSG [chain 1 E11T],"0.000925 average fractional NGS count over selection days 2 and 3 (reads of this peptide / all reads for the bait, averaged over …"

row,Variant,screen value
1,chain 1 LMSKLSVNAPMFYPSG [chain 1 E11M],"0.000642 average fractional NGS count over selection days 2 and 3 (reads of this peptide / all reads for the bait, averaged over …"
2,chain 1 LMSKLSVNAPSFYPSG [chain 1 E11S],"0.00171 average fractional NGS count over selection days 2 and 3 (reads of this peptide / all reads for the bait, averaged over …"
3,chain 1 LMSKLSVNAPIFYPSG [chain 1 E11I],"0.000759 average fractional NGS count over selection days 2 and 3 (reads of this peptide / all reads for the bait, averaged over …"
4,chain 1 LMSKLSVNAPDFYPSG [chain 1 E11D],"0.000612 average fractional NGS count over selection days 2 and 3 (reads of this peptide / all reads for the bait, averaged over …"
5,chain 1 LMSKLSVNAPAFYPSG [chain 1 E11A],"0.00172 average fractional NGS count over selection days 2 and 3 (reads of this peptide / all reads for the bait, averaged over …"
6,chain 1 LMSKLNVNAPEFYPSG [chain 1 S6N],"0.000518 average fractional NGS count over selection days 2 and 3 (reads of this peptide / all reads for the bait, averaged over …"
7,chain 1 LMSKLWVNAPEFYPSG [chain 1 S6W],"0.000475 average fractional NGS count over selection days 2 and 3 (reads of this peptide / all reads for the bait, averaged over …"
8,chain 1 LMSKLSVNAPEFYRSG [chain 1 P14R],"0.00035 average fractional NGS count over selection days 2 and 3 (reads of this peptide / all reads for the bait, averaged over …"
9,chain 1 LMSKLSVNAPEFYASG [chain 1 P14A],"0.0008 average fractional NGS count over selection days 2 and 3 (reads of this peptide / all reads for the bait, averaged over …"
10,chain 1 LMSKLSVNAPEFYMSG [chain 1 P14M],"0.000928 average fractional NGS count over selection days 2 and 3 (reads of this peptide / all reads for the bait, averaged over …"
11,chain 1 LMSKLSVNAPEFYQSG [chain 1 P14Q],"0.000256 average fractional NGS count over selection days 2 and 3 (reads of this peptide / all reads for the bait, averaged over …"
12,chain 1 LMSKLSVNAPEFYWSG [chain 1 P14W],"0.000356 average fractional NGS count over selection days 2 and 3 (reads of this peptide / all reads for the bait, averaged over …"
13,chain 1 LMSKLSVNAPEFMPSG [chain 1 Y13M],"0.000346 average fractional NGS count over selection days 2 and 3 (reads of this peptide / all reads for the bait, averaged over …"
14,chain 1 LMSKLSVNAPEFWPSG [chain 1 Y13W],"0.00367 average fractional NGS count over selection days 2 and 3 (reads of this peptide / all reads for the bait, averaged over …"
15,chain 1 LMSKLSVNAPEFTPSG [chain 1 Y13T],"0.00149 average fractional NGS count over selection days 2 and 3 (reads of this peptide / all reads for the bait, averaged over …"
16,chain 1 LMSKLSVNAPEFSPSG [chain 1 Y13S],"0.000669 average fractional NGS count over selection days 2 and 3 (reads of this peptide / all reads for the bait, averaged over …"
17,chain 1 LMSKLSVNAPEFRPSG [chain 1 Y13R],"0.000336 average fractional NGS count over selection days 2 and 3 (reads of this peptide / all reads for the bait, averaged over …"
18,chain 1 LMSKLSVNAPEFIPSG [chain 1 Y13I],"0.021 average fractional NGS count over selection days 2 and 3 (reads of this peptide / all reads for the bait, averaged over …"
